The record followed here is patent US20220002384A1 (published 2022).

The target of the test is T1, AXL (R&D Systems cat#154-AL) (UniProt P30530 26-440).
T1 chain: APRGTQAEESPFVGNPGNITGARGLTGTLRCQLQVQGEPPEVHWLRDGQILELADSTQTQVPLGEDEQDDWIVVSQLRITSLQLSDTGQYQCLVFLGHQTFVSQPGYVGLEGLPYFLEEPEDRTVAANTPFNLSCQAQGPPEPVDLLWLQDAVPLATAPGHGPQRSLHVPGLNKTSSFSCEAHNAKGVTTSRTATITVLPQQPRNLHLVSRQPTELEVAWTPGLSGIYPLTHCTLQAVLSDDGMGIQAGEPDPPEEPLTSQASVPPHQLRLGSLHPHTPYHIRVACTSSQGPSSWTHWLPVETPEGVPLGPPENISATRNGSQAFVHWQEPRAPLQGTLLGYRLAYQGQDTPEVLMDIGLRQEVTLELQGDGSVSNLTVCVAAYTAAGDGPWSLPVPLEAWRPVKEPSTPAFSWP
The test is described as follows: BLI. A general note: BLI is a label-free optical method that tracks binding on a fibre tip over time.

B1: AXL #56 (designed binder)
chain: NVSPPRRARVTDATETTITISWRVSPSTVVGLQVDAVPANGQTPIQRTIKPDVRSYTITGLQPGTDYKIYLYTLNVIGGSAHASSPVVIDAST
B1: the affinity, expressed as Kd, was 12 nM.

B2: AXL #44 (designed binder)
chain: NVSPPRRARVTDATETTITIRWEGRGVIGFQVDAVPANGQTPIQRTIKPDVRSYTITGLQPGTDYKIYLYTLPNIGTGHFSSSPVVIDAST
The molecule B2 returned a Kd of 4 nM.

A word on the Kd: it is the equilibrium constant for the complex coming apart.
